# Primed or numbered codes have the meaning given here. Where no end group is shown, it is not given here. FAM = carboxyfluorescein fluorophore label; 5FAM′ = 5-carboxyfluorescein
# Experiments:
# [1] = urinary filtration of mass-encoded free reporters after IT or IV administration; assay type: in vivo, mice; details: doses 2.5 ng to 25 ng, urine at 1 hour
# Source text: To enable detection of a broad spectrum of disease-associated proteases in vivo, the 14 peptides of the LUAD substrate panel were appended with mass-encoded reporters (PP1-14; Table 3). Following substrate proteolysis, the reporters diffuse away from the nanoparticle scaffold and are sized so as to be able to efficiently cross into the bloodstream, where they can be concentrated into the urine by glomerular filtration (FIG. 1B). As previously described (Kwong et al., Nat Biotechnol 31, 63-70, 2013), variable labeling of the 14-mer Glu-Fibrinopeptide B (Glu-Fib) with stable isotope-labeled amino acids was used to uniquely barcode each of 14 peptide substrates. Multiple reaction monitoring via a liquid chromatography triple quadrupole mass spectrometer (LC-MS/MS) enables quantitative assessment of peptide-liberated urinary reporter concentration within a broad linear range (1-1000 ng/mL, FIG. 8A). Using mass-encoded free reporters, the filtration of Glu-Fib reporters into the urine after IT or IV administration was assessed and strong linearity of the MS assay for both routes of delivery for input doses between 2.5 ng and 25 ng (R^2=1.00, FIG. 8B) was found for both routes of delivery (sloperIT=0.075 ng^−1, slopeIV=0.077 ng^−1; FIG. 8B).
# Liquid chromatography/tandem mass spectrometry was performed by Syneos Health (Princeton, NJ) using a Sciex 6500 triple quadrupole instrument. […]
# [2] = system: PA01 supernatant; assay: cleavage of FRET-paired substrates by bacterial supernatant; assay type: biochemical, Pseudomonas aeruginosa
# Description: (§1) The specificity of LAS and ELA for P. aeruginosa cleavage was tested by collecting supernatants from PA01 or Staphylococcus aureus cultures and incubating them with FRET-paired substrates LAS-Q and ELA-Q in 384 well plates. […] To investigate whether the LAS and ELA substrates are also susceptible to cleavage by host proteases, each was incubated with recombinant mouse proteases.
# (§2) Supernatant from PA01 and S. aureus were collected and added to substrates in 384 well plates and dequenching of FAM was monitored at 37° C. (Tecan). Fluorescence change at 30 minutes was reported. For recombinant protease assays, enzyme was added to the substrates in enzyme-specific buffer (MMP7 & 9 buffer: 50 mM Tris, 150 mM NaCl, 5 mM CaCl2), […], pH 7.5; Thrombin: PBS; NE: 100 mM HEPES, 500 mM NaCl, 0.05% Tween 20) in a 384 well plate for time-lapse fluorimetry to measure dequenching at 37° C. (Tecan).
# [3] = target: T1, recombinant human MMP13 (Homo sapiens, UniProt P45452); assay: cleavage of aerosolized fluorogenic nanosensor by MMP13; assay type: biochemical; details: 50 nM MMP13, 5 μM nanosensor
# T1 construct: purchased Enzo
# Description: As a step toward developing a more clinically relevant delivery method, particle durability and biodistribution after aerosolization were also characterized.
# Analysis of nanoparticle stability and protease cleavage susceptibility following aerosolization used […] 250 μM PEG-840 kDa scaffold (FIGS. 22B-22E) or 5 μM PPQ5 PEG-840 kDa nanosensors (FIG. 22F). Protease cleavage assays of aerosolized nanoparticles used 50 nM of recombinant human MMP13 (Enzo).
# [4] = target: T2, MMP7 (Mus musculus, UniProt Q10738); assay: recombinant host protease cleavage assay; assay type: biochemical
# T2 sequence (Q10738 95-264): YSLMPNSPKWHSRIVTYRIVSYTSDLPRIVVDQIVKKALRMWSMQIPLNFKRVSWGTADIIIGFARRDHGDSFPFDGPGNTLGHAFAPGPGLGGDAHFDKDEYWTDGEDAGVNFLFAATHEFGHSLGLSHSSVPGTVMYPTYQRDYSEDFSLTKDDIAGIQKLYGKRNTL
# Description: as §1, §2
# [5] = target: MMP13 (Mus musculus, UniProt P33435); assay: recombinant host protease cleavage assay; assay type: biochemical
# Description: as §1, §2
# [6] = target: thrombin (Mus musculus, UniProt P19221); assay: recombinant host protease cleavage assay; assay type: biochemical
# Description: as §1, §2
# [7] = system: P. aeruginosa clinical isolate strains; assay: cleavage of FRET-paired substrates by clinical isolate supernatants; assay type: biochemical, Pseudomonas aeruginosa; details: five clinical isolate strains
# Description: P. aeruginosa strains isolated from de-identified clinical samples were generously provided by Dr. Deborah Hung, MD, PhD (Massachusetts General Hospital). Cultures of each were grown in LB broth overnight, then were subcultured in fresh LB and each strain grown to OD-matched mid log phase (OD600˜0.5). Supernatants were collected by centrifugation and substrate cleavage was monitored as described above.
compound,measurement,setting,value
"Glu-Fib reporters: mass-encoded free reporters, stable isotope-labeled variants of 14-mer Glu-Fibrinopeptide B",slope of urinary reporter signal versus input dose,[1]; IT administration,0.075 ng⁻¹
same,slope of urinary reporter signal versus input dose,[1]; IV administration,0.077 ng⁻¹
"[Cl-].[Cl-].[Zn+2] [ZnCl2, reference compound]",effect on cleavage signal of LAS-Q and ELA-Q,[2]; added to PA01 supernatant,suppressed the cleavage signal
"PEG-PPQ5: fluorogenic nanosensor, PPQ5 on PEG-840 kDa ({5FAM′}-GGPLGVRGKKC; not fully specified (residue 10); printed as GGPLGVRGKK(CPQ2)-PEG2-C; also: on PEG-840 kDa carrier, site not given here)",sensitivity to in vitro cleavage pre- versus post-aerosolization,[3],equally sensitive
"LAS-Q: FRET-paired (FAM fluorophore, Dabcyl quencher) substrate for P. aeruginosa protease LasA; includes SEQ ID NO: 45 (GLGGGAGK(FAM); also: Dabcyl quencher, site not given here)",cleavage by supernatant (fluorescence signal),"[2]; PA01 culture supernatant, fluorescence change at 30 minutes",greater selectivity for cleavage of LAS-Q by PA01
same,cleavage by recombinant protease,[4],resist cleavage
same,cleavage by recombinant protease,[5],resist cleavage
same,cleavage by recombinant protease,[6],resist cleavage
same,strains whose supernatant gave significant cleavage,[7],3 of the 5 strains

# Source: patent US12173349B2, “Lung protease nanosensors and uses thereof” (Massachusetts Institute of Technology, priority 2018, dated 2024)
